Reference: patent US12458618B2, “Compounds and methods for the detection of TRPV-6 cancers and drug delivery” (Soricimed Biopharma Inc., priority 2009, dated 2025)
Where no end group is shown, it is not given here. Cy5.5 maleimide = Cy5.5 label attached to cysteine thiol by maleimide-activated reaction

Legend:
TRPV6 [1] = target: T1, TRPV6 (Homo sapiens, UniProt Q9H1D0); assay: Equilibrium dissociation constant (Kd) in an LNCaP model; type: binding; parameters: endogenous in cells; host or cells: LNCaP
T1 sequence (Q9H1D0 1-765): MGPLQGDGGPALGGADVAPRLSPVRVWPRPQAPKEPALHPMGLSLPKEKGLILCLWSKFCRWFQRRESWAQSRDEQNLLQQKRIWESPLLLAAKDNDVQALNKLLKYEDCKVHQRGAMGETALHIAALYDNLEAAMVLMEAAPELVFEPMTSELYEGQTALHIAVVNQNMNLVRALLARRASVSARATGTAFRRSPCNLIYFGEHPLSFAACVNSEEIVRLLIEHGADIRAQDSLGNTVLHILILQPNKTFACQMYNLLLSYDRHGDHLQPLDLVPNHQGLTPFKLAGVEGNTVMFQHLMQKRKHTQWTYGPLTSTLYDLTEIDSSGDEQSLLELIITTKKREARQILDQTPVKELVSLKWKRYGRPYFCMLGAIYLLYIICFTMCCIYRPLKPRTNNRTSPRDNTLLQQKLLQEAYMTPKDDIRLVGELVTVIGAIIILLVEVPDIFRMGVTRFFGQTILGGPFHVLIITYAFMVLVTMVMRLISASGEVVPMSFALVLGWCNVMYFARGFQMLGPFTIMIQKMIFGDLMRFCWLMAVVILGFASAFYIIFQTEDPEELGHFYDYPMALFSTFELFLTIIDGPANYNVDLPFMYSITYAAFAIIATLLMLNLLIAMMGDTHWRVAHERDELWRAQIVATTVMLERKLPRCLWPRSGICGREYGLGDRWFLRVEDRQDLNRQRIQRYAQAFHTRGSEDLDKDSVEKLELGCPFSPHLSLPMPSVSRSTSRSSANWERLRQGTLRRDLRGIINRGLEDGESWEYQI
Excerpt: As noted above, a TRPV6-binding peptide of the invention will have calcium channel binding activity. The peptides having such activity are readily identified with any known assays suitable for measuring binding of the peptides with TRPV6. For example, in one embodiment, a peptide having calcium channel inhibition activity is optionally identified by determining that the peptide reduces calcium channel activity by reducing (i.e., partially or fully inhibiting) the flow of calcium through calcium channels. TRPV6-binding activity can also be measured using methods such as: internalized calcifluors (such as FURA-2 am); whole cell patch clamping to measure inhibition calcium currents electrophysiologically; equilibrium binding assays using peptides labeled with detectable tags such as radioactive or fluorescent tags; and/or NMR determination of ‘bound’ and ‘unbound’ peptides. In some embodiments, the TRPV6-binding peptides also have i) calcium channel blocking and ii) lack of paralytic activity.
Calcium channel binding activity is optionally identified by using a readily available cell line (e.g. human embryonic kidney cell lines-HEK293) transfected with an expression vector for TRPV6. Such transfected cells are readily aliquoted and stored (typically −80° C.) until required. […]

[2] = Tissue distribution of Cy5.5-labeled peptides after i.v. injection, optical imaging; type: in vivo, CD1 mice
Excerpt: SorC13 and SorC27 were labeled with the near-infrared probe, Cy5.5. SorC13 was labeled at lysine-1 and lysine-8 with the infrared fluorescent probe cy5.5 through reaction with Cy5.5 NHS ester-activated process. SorC27 was labeled at the single cysteine thiol with Cy5.5 maleimide-activated reaction. The labeled peptides were purified with a combination of size exclusion chromatography and HPLC. The label, Cy5.5, fluoresces in the infra-red region after excitation with a scanning laser. The low energy laser is able to penetrate the animal to about 1 cm and, thus, by scanning prone and supine positions, the presence of the tagged peptides can be quantified in three dimensions.
Cy5.5-labeled peptides were intravenously injected into CD1 mice (4 for each compound) at 100 μg per animal in 100 μL, and animals were imaged live using an optical imaging system, Optix explorer (GE Healthcare Systems) at different time points (30 min, 90 min, 4 h). […] The bio-distribution of the labeled peptides in different organs and tissues were visualized and relatively quantified by optical imaging analysis. This protocol allows for visualization of the location of the labeled peptides and how the location changes over time. […] Nodes that accumulated the labeled peptides are indicated by line 1 (superfacial cervical nodes), line 4 (axillary nodes), line 5 (brachial nodes), line 8 (mesenteric nodes) and line 9 (inguinal nodes). FIGS. 2, 3 and 4 show the amounts of labeled peptides in various organs ex vivo.

TRPV6 [3] = target: T1, TRPV6; assay: Co-localization with TRPV6 antibody in HEK-293 cells transfected with a TRPV6 expression vector; type: cell-based
Experimental: HEK-293 cells were transfected with a TRPV6 expression vector and incubated with fluorescently labeled antibodies to the N-terminal peptides of TRPV6 as well as fluorescently labeled SorC27 (SorC27-cy5.5). HEK-293 cells that were not transfected with a TRPV6 expression vector were also incubated with fluorescently labeled anti-TRPV6 and SorC27-cy5.5 as a negative control (FIG. 6A).

[4] = system: TRPV6-rich ovarian (SKOV-3 cells) tumors; assay: Localization of SorC27-cy5.5 to xenografted ovarian tumors in vivo (optical imaging); parameters: species or system nude CD1 mice; settings: 100 μg intraperitoneally, SKOV-3 ovarian xenograft
Experimental: (§1) Mice xenografted with a TRPV6-rich ovarian (SKOV-3 cells) and prostate (DU145 cells) tumors were injected (intraperitoneally) with the fluorescently-labeled TRPV6-binding peptide SorC27-cy5.5. SorC27 was labeled with the near-infrared probe Cy5.5 at the single cysteine thiol using a Cy5.5 maleimide-activated reaction. The labeled peptides were purified with a combination of size exclusion chromatography and HPLC. Cy5.5, fluoresces in the infra-red region after excitation with a scanning laser. The low energy laser is able to penetrate the animal to about 1 cm and, thus, by scanning, the presence of the tagged peptides can be quantified in three dimensions. Cy5.5-labeled peptides were intraperitoneally injected into nude CD1 mice at 100 μg per animal, and animals were imaged live using an optical imaging system, Optix explorer (GE Healthcare Systems) at different time points (30 min, 90 min, 4 h).

[5] = system: prostate (DU145 cells) tumors; assay: Localization of SorC27-cy5.5 to xenografted prostate tumors in vivo (optical imaging); parameters: species or system nude CD1 mice; settings: 100 μg intraperitoneally, DU145 prostate xenograft
Experimental: as §1

[6] = system: ovarian TRPV6-rich tumor (SKOV-3 cells); assay: SorC27-cy5.5 in mice xenografted with SKOV-3 tumor (Example 9); type: in vivo; settings: SKOV-3 xenograft
Experimental: Mice xenografted with an ovarian TRPV6-rich tumor (SKOV-3 cells) are injected with the fluorescently-labeled TRPV6-binding peptide SorC27-cy5.5.

TRPV6 [7] = target: T1, TRPV6; assay: Co-localization of SorC27-cy5.5 and fluorescently labeled TRPV6 antibodies in cancer cell lines; type: cell-based; parameters: endogenous in cells; host or cells: PC-3, T 47D, SKOV-3
Excerpt: The level of TRPV6 immunofluorescence and SorC27-cy5.5 fluorescence are both increased in the transfected cells with increased TRPV6 expression shown in the B1-B3 series of FIG. 7 compared to the cells in the A1-A3 series of FIG. 7.
The level of TRPV6 immunofluorescence and SorC27-cy5.5 fluorescence are both increased in the transfected cells with greater TRPV6 expression shown in the B1-B3 series of FIG. 8 compared to the cells in the A1-A3 series of FIG. 8.
The level of TRPV6 immunofluorescence and SorC27-cy5.5 fluorescence are both increased the transfected cells with greater TRPV6 expression shown in the B1-B3 series of FIG. 9 compared to the cells in A1-A3 series of FIG. 9.

TRPV6 [8] = target: T1, TRPV6; assay: Fluorescently tagged peptide on staged tumor tissue micro-arrays (Example 7); parameters: from tissue; host or cells: ovarian cancer tumour sections on tissue micro-arrays; settings: Stage I to Stage IV tissue micro-arrays
Experimental: Fluorescently tagged TRPV6-binding peptides are useful to determine the stage of a tumor by direct incubation of Tissue Micro-Arrays (TMA) with the peptide reagent. SorC27-cy5.5 compound is incubated with cells from a subject and fluorescence levels are compared to levels from control staged tumor samples.

Substance	Kd (TRPV6 [1])	predominant tissue localization ([2]; 100 μg i.v., CD1 mice, imaging up to 4 h)	detectability in tissues after perfusion ([2]; 24 hours, after perfusion to remove blood and lymph)	accumulation in lymph nodes (superfacial cervical, axillary, branchial, mesenteric, inguinal) ([2]; four hours after i.v. injection of 100 μg)	fluorescence in non-transfected cells (negative control) (TRPV6 [3]; HEK293 cells not transfected with the TRPV6 expression vector)	binding to TRPV6 (co-localization with anti-TRPV6) (TRPV6 [3]; HEK-293 cells transfected with TRPV6 expression vector)	time tumor is clearly detected in vivo after injection [4]	time tumor is clearly detected in vivo after injection [5]	detection of xenografted tumor by fluorescence [6]	SorC27-cy5.5 fluorescence in TRPV6-transfected versus non-transfected cells (TRPV6 [7]; PC-3)	SorC27-cy5.5 fluorescence in TRPV6-transfected versus non-transfected cells (TRPV6 [7]; SKOV-3)	SorC27-cy5.5 fluorescence in TRPV6-transfected versus non-transfected cells (TRPV6 [7]; T 47D)	co-localization with TRPV6 antibody (TRPV6 [7]; breast cancer cell line T 47D)	co-localization with TRPV6 antibody (TRPV6 [7]; ovarian cancer cell line SKOV-3)	co-localization with TRPV6 antibody (TRPV6 [7]; prostate cancer cell line PC-3)	fluorescent signal with tumor stage (TRPV6 [8])
HPSKVDLPR [SorC9, HPSKVDLPR]	~90 nM	–	–	–	–	–	–	–	–	–	–	–	–	–	–	–
SorC27-cy5.5: SorC27 labeled at the single cysteine thiol with Cy5.5 maleimide-activated reaction (EGKLSSNDTEGGLC(Cy5.5 maleimide)KEFLHPSKVDLPR)	–	localize predominantly in lymph nodes, lung, liver and kidney	still detectable in these tissues	Significant accumulation	no fluorescence	bound to TRPV6	at least 24 hours	at least 24 hours	detected in vivo	increased	increased	increased	co-localization of SorC27-cy5.5 and TRPV6	co-localization of SorC27-cy5.5 and TRPV6	co-localization of SorC27-cy5.5 and TRPV6	increase in the intensity of the fluorescent signal
